Where no end group is shown, it is not given here.

This is an account of results in patent US10864251B2, “Peptides of syndecan-1 for inhibiting angiogenesis” (Wisconsin Alumni Research Foundation, priority 2006, dated 2020).

The test system of series [1] is FGF-induced angiogenesis in the mouse cornea. As to the kind of experiment: Corneal pocket implant angiogenesis assay. Format: in vivo. The procedure: FIG. 13—Inhibition of corneal angiogenesis by SSTN. PolyHEMA pellets (0.25 μL) containing 67 ng FGF-2 and sucralfate were implanted into the avascular mouse cornea. Alzet pumps containing PBS, 2500 μM mS1ED or a range of SSTN concentrations (0-100 μM) were implanted subcutaneously on the back of the animals and angiogenesis for 7 days. Fluorescent dextran was injected suborbitally for 2 min prior to sacrifice for observation of the vascular system in dissected cornea (picture insets). Total angiogenesis is quantified as total length of vessels growing from the limbic vessels at the margin of the cornea.
A polyhydroxyethylmethacrylate (PolyHEMA) pellet 1 μl in volume containing 100 ng FGF was implanted into pockets surgically prepared in the center of the avascular corneas of 6 wk-old Balb/c mice. Three mice were used as controls and three mice received a 0.2 ml Alzet osmotic pump implanted subcutaneously on the back of the mice. The pump was loaded with 100 μM synstatin82-130 in sterile saline and delivers 1 μl into the mouse per hr. The mice were allowed to recover and were maintained for seven days. The extent of angiogenesis was recorded by digital camera images of the living mouse. Fluorescent dextran was then injected into the vascular via retro-orbital injection 1-2 minutes prior to sacrifice. Corneas were surgically removed, mounted on slides and the extent of vascularization observed via fluorescence microscopy.
To test the efficacy of synstatin82-130 in vivo, the inventors have used the mouse corneal pocket implant angiogenesis assay. Here, angiogenesis is induced in the avascular mouse cornea by implantation of a polyHEMA pellet containing fibroblast growth factor (FGF), which is a potent angiogenic agent. The FGF will induce angiogenic outgrowth of new vessels from the limbic vessels at the margin of the cornea into the avascular region at the center of the cornea where the pellet is implanted. The inventors have tested recombinant S1ED by supplying it along with the FGF in the pellet implanted into the cornea, and have also introduced it into the systemic circulation of the mouse through the use of an osmotic pump placed subcutaneously on the back of the animal. The latter protocol more closely mimics the manner in which such an inhibitor might be delivered as a drug in patients. […] The concentration necessary for the block in vivo has not yet been measured. […] However, this is likely to be a high estimate, as clearance and degradation are likely to occur, and the protein is likely to be present in the greater volume of the mouse than just the vascular system.
Lastly, SSTN was tested in the in vivo corneal angiogenesis assay. Polyhydroxyethylmethylacrylate pellets (0.25 μL) containing 67 ng FGF-2 and sucralfate as a slow release agent were implanted into the avascular mouse cornea. After seven days, fluorescent dextran was injected suborbitally to highlight the vascular system and the mice were sacrificed. […] To supply the inhibitor in a more quantifiable and physiological manner, recombinant mS1ED or SSTN were delivered systemically via Alzet osmotic pumps implanted subcutaneously on the backs of the animals. […] To correlate this with the active concentration in the plasma, the inventors took advantage of rabbit polyclonal antibodies generated against mS1ED, which detect active SSTN on dot blots. […] Using this method to detect active SSTN in the blood collected from animals after 1 week of SSTN treatment, SSTN is shown to be in the blood at 125-150 nM when present at 10 μM in the osmotic pump.

Series [2] concerns MDA-MB-231 human mammary carcinoma cells. Format: cell-based. On the procedure:
FIGS. 5A-5F—Inhibition of MDA-MB-231 human mammary carcinoma cell attachment and spreading on VN by synstatin82-130. MDA-MB-231 human mammary carcinoma cells, which rely on the αvβ3 integrin for attachment and spreading on VN, were plated on 10 μg/ml VN for 2 hr in the absence of peptide (FIG. 5A) or in the presence of 0.1 (FIG. 5B), 0.3 (FIG. 5C) or 1 μM (FIG. 5D) synstatin82-130. The cells were fixed and stained as in FIG. 2.
FIG. 17—Human SSTN peptides inhibit αvβ3-mediated cell attachment and spreading on vitronectin. MDA-MB-231 human mammary carcinoma cells were allowed to attach and spread on either vitronectin (VN) or fibronectin (FN) during a 2 hr assay in the presence of 0, 0.1, 0.3, 0.5, 1.0 or 30 μM SSTN peptide. […] The two peptides tested are derived either from amino acids 88-121 (hSSTN 88-121) or 89-120 (hSSTN 89-120) of the human Sdc1 sequence. Adhesion to VN, but not FN, is mediated by the αvβ3 integrin on these cells and is disrupted by the human SSTN peptides.
Cell adhesion and spreading assays were performed with modification to the previous procedures (Lebakken and Rapraeger, 1996. Briefly, human plasma vitronectin or fibronectin at 10-30 μg/ml were applied to nitrocellulose-coated ten well slides (Erie Scientific) and incubated for 1-2 h at 37° C. Slides were blocked with 1.0% heat-denatured bovine serum albumin for a minimum of 30 min at 37° C. Cells were detached from the substratum using 5 mM EDTA in Tris-buffered saline and resuspended in HEPES-buffered culture medium containing 0.1% heat-denatured BSA. Cells were plated at a density of 15,000 cells per well and allowed to attach and spread for 2 h prior to fixation in 4% paraformaldehyde in CMF-PBS. For fluorescence microscopy, fixed cells were permeabilized in 0.2% Triton X-100, labeled with rhodamine-conjugated phalloidin and analyzed using fluorescence microscopy. For testing inhibition by recombinant mScd-1ED and synstatin82-130, cells were pre-incubated 10 min before plating in the presence of the inhibitor. […] LM609 was used as a specific block to αvβ3 and P1F6 was used as a specific blocker of αvβ5.
The inventors have tested the adhesion and spreading of MDA-MB-231 mammary carcinoma cells on VN in the presence or absence of synstatin82-130. These cells rely specifically on the active αvβ3 integrin for this adhesion (Beauvais et al., 2004). Recombinant Sdc1 ectodomain (SLED) has been shown by the inventors previously to block spreading of these cells with an IC50 of about 3-10 μM (Beauvais et al., 2004). […] Thus, synstatin82-130 is a specific and effective inhibitor of αvβ3 integrin activation.

With “SNTETAFTSVLPAGEKPEEGEPVLHVEAEPGFTARDKEKEVTTRPRETV [synstatin82-130]”, in series [1] (100 μM in osmotic pump, activity, eating, weight, behavior), the “ill effects after one week of treatment” value is on record as “no ill effects”. Moreover, the “estimated systemic concentration after 24 hr” value in series [1] (100 μM in pump, same assumptions) is no more than 1.2 µM. The IC50 – broadly, the concentration that inhibits the measured activity by half – in series [2] (2 h) is roughly 100 nM.

B1: S1ED: recombinant mouse Sdc1 ectodomain (amino acids 18-251), expressed in bacteria as GST fusion or 6×His-tagged protein (protein)
chain: QPALPQIVAVNVPPEDQDGSGDDSDNFSGSGTGALPDTLSRQTPSTWKDVWLLTATPTAPEPTSSNTETAFTSVLPAGEKPEEGEPVLHVEAEPGFTARDKEKEVTTRPRETVQLPITQRASTVRVTTAQAAVTSHPHGGMQPGLHETSAPTAPGQPDHQPPRVEGGGTSVIKEVVEDGTANQLPAGEGSGEQDFTFETSGENTAVAAVEPGLRNQPPVDEGATGASQSLLDRK
modifications: left off: a dimerising Fc or GST
notes: recombinant mouse Sdc1 ectodomain (amino acids 18-251), expressed in bacteria as GST fusion or 6×His-tagged protein
For the molecule B1, in series [1] (2.4 mM in pump, 1 μl per hour, assuming 2 ml blood volume, no degradation or clearance), the “estimated systemic concentration after 24 hr” value is recorded as “approximately 29 μM”. Besides, the corneal angiogenesis result is on record as “nearly total block of angiogenesis” in series [1] (2500 μM in Alzet pump, 67 ng FGF-2 pellet, 7 days) and “reduced the angiogenesis” in series [1] (incorporated into the pellet). For the same molecule, the FGF-induced corneal angiogenesis result in series [1] (in the pellet with FGF or systemic via osmotic pump, 2.4 mM, 1 μl per hour) is listed as “blocks the FGF-induced angiogenesis”. The “complete block of cell attachment on VN” value in series [2] (highest concentration tested, 50 μM) is recorded as “not seen”.
